In US20070224199A1 (UNIVERSITY OF CENTRAL FLORIDA RESEARCH FOUNDATION, published 2007):

T1: GST-hTERT-HA (C-terminal region, amino acid 946-1132, of hTERT), O14746
T1 chain: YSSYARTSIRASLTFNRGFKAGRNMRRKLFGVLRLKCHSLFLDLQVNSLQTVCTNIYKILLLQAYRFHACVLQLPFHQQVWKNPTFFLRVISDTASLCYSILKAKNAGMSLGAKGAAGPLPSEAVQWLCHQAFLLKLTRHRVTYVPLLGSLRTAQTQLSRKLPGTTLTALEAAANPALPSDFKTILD


Tests used:
[1] = molecular target: T2, Flag-hTERT (N-terminal Flag-tagged full-length hTERT) (human, UniProt O14746 1-1132); assay: co-immunoprecipitation from H1299 cells (anti-Flag IP, anti-V5 immunoblot), with MG132
T2 construct: expressed in transfected H1299 cells; also called Flag-tagged hTERT
Method: Amino acid sequences surrounding the RING finger domain in MKRN1 and mutants used in this study. Cysteines and a histidine in the RING finger domain are shown in red. Mutated residue in MKRN1^H307E is shown in blue. (C) H1299 cells co-transfected with hTERT-HA and MKRN1 -V5 were either untreated or treated for 2 hours with 10 μg/ml ALLnN. Anti-HA immunoprecipitates were analyzed by immunoblotting using an anti-V5 antibody probe. […] (D) H1299 cells co-transfected with Flag-hTERT and MKRN1-V5 were either untreated or treated for 2 hours with 10 μM MG132. Anti-Flag immunoprecipitates were analyzed by immunoblotting using an anti-V5 antibody probe. […] Flag-hTERT was visualized with an anti-Flag antibody probe.
H1299 cells were transiently transfected with the expression vectors indicated in the figure legends using TransFast transfection reagent (Promega, Medison, Wis.) according to the manufacturer's instructions. Cells were lysed with buffer containing 0.5% NP-40, 50 mM Tris-HCl (pH 7.5), 150 mM NaCl, 2 mM phenyl methylsulphonyl fluoride. […] When ubiquitin conjugates of hTERT were detected, immunoprecipitation was performed with lysis buffer containing 0.1% SDS to dissociate its interacting proteins. […]

[2] = molecular target: T1, GST-hTERT-HA (C-terminal region, amino …)
[3] = molecular target: T2, Flag-hTERT (N-terminal Flag-tagged …); assay: inferred from the dominant negative effect in the in vivo ubiquitination assay in H1299 cells
Method: H1299 cells were transiently transfected with the expression vectors indicated in the figure legends using TransFast transfection reagent (Promega, Medison, Wis.) according to the manufacturer's instructions. Cells were lysed with buffer containing 0.5% NP-40, 50 mM Tris-HCl (pH 7.5), 150 mM NaCl, 2 mM phenyl methylsulphonyl fluoride. After centrifugation at 12,000 rpm for 30 min, the supernatants were immunoprecipitated for 2 hours with anti-Flag (Sigma, St. Louis, Mo.) or anti-HA (Santa Cruz biotechnology, Santa Cruz, Calif.) antibodies and then incubated with Sepharose beads conjugated to Protein G (Amersham Biosciences Inc., Piscataway, N.J.). When ubiquitin conjugates of hTERT were detected, immunoprecipitation was performed with lysis buffer containing 0.1% SDS to dissociate its interacting proteins. Immunoblot analyses were performed using anti-hTERT (Santa Cruz biotechnology, Santa Cruz, Calif.), anti-V5 (Invitrogen, Carlsbad, Calif.), anti-HA, and anti-Flag antibodies.
To investigate whether MKRN1 contributes to the ubiqitination of hTERT in vivo, H1299 cells were cotransfected with Flag-hTERT, HA-ubiquitin, and MKRN1-V5 constructs, and immunoprecipitated with anti-Flag antibody followed by immunoblotting with anti-HA antibody. Ubiquitin conjugates of hTERT were easily detected in the presence of MG132 (FIG. 4B, lane 2 in upper blot). […]

| Binder | binding result [1] | in vitro ubiquitination assay (anti-HA immunoblot) [2] | binding result [3] |
| --- | --- | --- | --- |
| MKRN1-V5 (enzyme, not shown: small tags and cut ends, Full-length MKRN1 expressed in transfected H1299 cells) MAEAATPGTTATTSGAGAAAATAAAASPTPIPTVTAPSLGAGGGGGGSDGSGGGWTKQVTCRYFMHGVCKEGDNCRYSHDLSDSPYSVVCKYFQRGYCIYGDRCRYEHSKPLKQEEATATELTTKSSLAASSSLSSIVGPLVEMNTGEAESRNSNFATVGAGSEDWVNAIEFVPGQPYCGRTAPSCTEAPLQGSVTKEESEKEQTAVETKKQLCPYAAVGECRYGENCVYLHGDSCDMCGLQLLHPMDAAQRSQHIKSCIEAHEKDMELSFAVQRSKDMVCGICMEVVYEKANPSERRFGILSNCNHTYCLKCIRKWRSAKQFESKIIKSCPECRITSNFVIPSEYWVEEKEEKQKLILKYKEAMSNKACRYFDEGRGSCPFGGNCFYKHAYPDAGREEPQRQKVGTSSRYRAQRRNHFWELIEERENSNPFDNDEEEVVTFELGEMLLMLLAAGGDDELTDSEDEWDLFHDELEDFYDLDL | binds | the C-terminal domain (residues 946-1132) of hTERT was efficiently ubiquitinated by wild-type MKRN1 |  |
| MKRN1^H307E-V5 (enzyme, not shown: small tags and cut ends, Expressed in transfected H1299 cells together with wild-type MKRN1-V5; also called hMKRN1^H307E) MAEAATPGTTATTSGAGAAAATAAAASPTPIPTVTAPSLGAGGGGGGSDGSGGGWTKQVTCRYFMHGVCKEGDNCRYSHDLSDSPYSVVCKYFQRGYCIYGDRCRYEHSKPLKQEEATATELTTKSSLAASSSLSSIVGPLVEMNTGEAESRNSNFATVGAGSEDWVNAIEFVPGQPYCGRTAPSCTEAPLQGSVTKEESEKEQTAVETKKQLCPYAAVGECRYGENCVYLHGDSCDMCGLQLLHPMDAAQRSQHIKSCIEAHEKDMELSFAVQRSKDMVCGICMEVVYEKANPSERRFGILSNCNETYCLKCIRKWRSAKQFESKIIKSCPECRITSNFVIPSEYWVEEKEEKQKLILKYKEAMSNKACRYFDEGRGSCPFGGNCFYKHAYPDAGREEPQRQKVGTSSRYRAQRRNHFWELIEERENSNPFDNDEEEVVTFELGEMLLMLLAAGGDDELTDSEDEWDLFHDELEDFYDLDL |  | but not by mutants MKRN1^307E or MKRN1^ΔC | binds |
